Assay results from the supplement of paper PMC9116672.
± gives the standard deviation of the averaged measurements or the uncertainty stated by the source.

Experiments:
[1] = duplex formation entropy ΔS (Van't Hoff fit of HRM Tm); higher = smaller entropy loss on duplex formation; settings: temperature for dG: 50 °C, NaCl: 500 mM (unadjusted)
Experimental: (§1)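 Duplex of the listed DNA strand with its complement, in 1x NNE buffer (500 mM NaCl, pH 7.0) with 1x EvaGreen. ΔH and ΔS come from a Van't Hoff linear fit of 1/Tm against ln(CT/4) over 1-20 uM, using HRM Tm values.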

[2] = duplex formation enthalpy ΔH (Van't Hoff fit of HRM Tm); higher = less exothermic duplex formation; settings: temperature for dG: 50 °C, NaCl: 500 mM (unadjusted)
Experimental: as §1

[3] = duplex formation free energy ΔG50 (Van't Hoff fit of HRM Tm); higher = less stable duplex; settings: temperature for dG: 50 °C, NaCl: 500 mM (unadjusted)
Experimental: as §1

[4] = duplex melting temperature (HRM, EvaGreen); higher = more stable duplex
Experimental: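 Listed DNA strand annealed 1:1 with its complementary strand (95 °C 5 min, 0.1 °C/s to 20 °C). Melted in 1x NNE buffer (500 mM NaCl, 10 mM Na2HPO4, 1 mM EDTA, pH 7.0) with 1x EvaGreen on a LightCycler96 (37 to 97 °C, 0.1 °C/s). Tm is the peak of -dF/dT at the stated total duplex concentration; 4 replicates are averaged. PS oligos are non-stereospecific (Rp/Sp mixtures).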

[5] = backbone: PO-PO (both strands phosphodiester DNA)
[6] = backbone: PS-PO (listed strand fully phosphorothioate, complement phosphodiester)
[7] = backbone: PS-PS (both strands fully phosphorothioate)
[8] = duplex concentration 1 µM, backbone: PO-PO (both strands phosphodiester DNA)
[9] = duplex concentration 1 µM, backbone: PS-PO (listed strand fully phosphorothioate, complement phosphodiester)
[10] = duplex concentration 1 µM, backbone: PS-PS (both strands fully phosphorothioate)
[11] = duplex concentration 2.5 µM, backbone: PO-PO (both strands phosphodiester DNA)
[12] = duplex concentration 2.5 µM, backbone: PS-PO (listed strand fully phosphorothioate, complement phosphodiester)
[13] = duplex concentration 2.5 µM, backbone: PS-PS (both strands fully phosphorothioate)
[14] = duplex concentration 5 µM, backbone: PO-PO (both strands phosphodiester DNA)
[15] = duplex concentration 5 µM, backbone: PS-PO (listed strand fully phosphorothioate, complement phosphodiester)
[16] = duplex concentration 5 µM, backbone: PS-PS (both strands fully phosphorothioate)
[17] = duplex concentration 7.5 µM, backbone: PO-PO (both strands phosphodiester DNA)
[18] = duplex concentration 7.5 µM, backbone: PS-PO (listed strand fully phosphorothioate, complement phosphodiester)
[19] = duplex concentration 7.5 µM, backbone: PS-PS (both strands fully phosphorothioate)
[20] = duplex concentration 10 µM, backbone: PO-PO (both strands phosphodiester DNA)
[21] = duplex concentration 10 µM, backbone: PS-PO (listed strand fully phosphorothioate, complement phosphodiester)
[22] = duplex concentration 10 µM, backbone: PS-PS (both strands fully phosphorothioate)
[23] = duplex concentration 15 µM, backbone: PO-PO (both strands phosphodiester DNA)
[24] = duplex concentration 15 µM, backbone: PS-PO (listed strand fully phosphorothioate, complement phosphodiester)
[25] = duplex concentration 15 µM, backbone: PS-PS (both strands fully phosphorothioate)
[26] = duplex concentration 20 µM, backbone: PO-PO (both strands phosphodiester DNA)
[27] = duplex concentration 20 µM, backbone: PS-PO (listed strand fully phosphorothioate, complement phosphodiester)
[28] = duplex concentration 20 µM, backbone: PS-PS (both strands fully phosphorothioate)

| Sequence | duplex formation entropy ΔS [1, 5] [cal/mol/K] | duplex formation entropy ΔS [1, 6] [cal/mol/K] | duplex formation entropy ΔS [1, 7] [cal/mol/K] | duplex formation enthalpy ΔH [2, 5] [kcal/mol] | duplex formation enthalpy ΔH [2, 6] [kcal/mol] | duplex formation enthalpy ΔH [2, 7] [kcal/mol] | duplex formation free energy ΔG50 [3, 5] [kcal/mol] | duplex formation free energy ΔG50 [3, 6] [kcal/mol] | duplex formation free energy ΔG50 [3, 7] [kcal/mol] | duplex melting temperature [4, 8] [°C] | duplex melting temperature [4, 9] [°C] | duplex melting temperature [4, 10] [°C] | duplex melting temperature [4, 11] [°C] | duplex melting temperature [4, 12] [°C] | duplex melting temperature [4, 13] [°C] | duplex melting temperature [4, 14] [°C] | duplex melting temperature [4, 15] [°C] | duplex melting temperature [4, 16] [°C] | duplex melting temperature [4, 17] [°C] | duplex melting temperature [4, 18] [°C] | duplex melting temperature [4, 19] [°C] | duplex melting temperature [4, 20] [°C] | duplex melting temperature [4, 21] [°C] | duplex melting temperature [4, 22] [°C] | duplex melting temperature [4, 23] [°C] | duplex melting temperature [4, 24] [°C] | duplex melting temperature [4, 25] [°C] | duplex melting temperature [4, 26] [°C] | duplex melting temperature [4, 27] [°C] | duplex melting temperature [4, 28] [°C] |
| --- | --- | --- | --- | --- | --- | --- | --- | --- | --- | --- | --- | --- | --- | --- | --- | --- | --- | --- | --- | --- | --- | --- | --- | --- | --- | --- | --- | --- | --- | --- |
| CGGGATTTCTGGCATCATTGTCCT | -332 ± 20 | -384 ± 18 | -294 ± 11 | -126 ± 7 | -141 ± 6.2 | -108 ± 3.9 | -19 ± 0.58 | -17.1 ± 0.38 | -13 ± 0.16 | 76 ± 0.48 | 67.9 ± 0.64 | 59.9 ± 0.76 | 77.25 ± 0.45 | 69.22 ± 0.5 | 61.87 ± 0.59 | 78.194 ± 0.017 | 70.21 ± 0.48 | 63.36 ± 0.43 | 79.16 ± 0.14 | 70.82 ± 0.46 | 64.38 ± 0.25 | 79.99 ± 0.12 | 71.58 ± 0.27 | 65.03 ± 0.12 | 80.96 ± 0.077 | 72.42 ± 0.15 | 65.67 ± 0.24 | 81.6 ± 0.082 | 72.86 ± 0.12 | 66.1 ± 0.11 |
| CTACCAGCGGCGCCGTT | -235 ± 13 | -163 ± 6.5 | -185 ± 5.4 | -92.6 ± 4.5 | -66.1 ± 2.3 | -72.5 ± 1.8 | -16.7 ± 0.4 | -13.3 ± 0.16 | -12.69 ± 0.1 | – | 68.2 ± 0.97 | 63.52 ± 0.26 | 78.66 ± 0.28 | 71.69 ± 0.5 | 66.46 ± 0.23 | 80.52 ± 0.35 | 74.62 ± 0.28 | 68.88 ± 0.19 | 81.81 ± 0.23 | 75.97 ± 0.31 | 70.02 ± 0.24 | 82.55 ± 0.18 | 76.92 ± 0.17 | 71 ± 0.18 | 83.52 ± 0.2 | 78.15 ± 0.26 | 72.23 ± 0.12 | 84.24 ± 0.2 | 79.05 ± 0.47 | 73.06 ± 0.32 |
| GTGAAACAATGCTGTAG | -199 ± 8.8 | -201 ± 6.2 | -197 ± 6.4 | -76.6 ± 3 | -75.5 ± 2 | -72.1 ± 2 | -12.1 ± 0.14 | -10.63 ± 0.061 | -8.41 ± 0.018 | 60.8 | – | 43.88 ± 0.29 | 62.87 ± 0.2 | 56.26 ± 0.25 | 46.82 ± 0.2 | 65.1 ± 0.46 | 58.51 ± 0.13 | 48.72 ± 0.15 | 66.14 ± 0.17 | 59.58 ± 0.12 | 49.72 ± 0.1 | 67.07 ± 0.17 | 60.43 ± 0.12 | 50.48 ± 0.19 | 68.31 ± 0.14 | 61.59 ± 0.25 | 51.63 ± 0.11 | 69.27 ± 0.11 | 62.36 ± 0.4 | 52.66 ± 0.18 |
| TACTTCCAACGTAGG | -159 ± 4.2 | -160 ± 9.1 | – | -62.5 ± 1.4 | -61.3 ± 3 | – | -10.98 ± 0.06 | -9.629 ± 0.064 | – | – | 49.1 | 45.032 ± 0.023 | 59.72 ± 0.33 | 51.72 ± 0.075 | 45.59 ± 0.28 | 62 ± 0.17 | 55.02 ± 0.098 | 47.2 ± 0.46 | 63.52 ± 0.17 | 56.5 ± 0.21 | 48.26 ± 0.23 | 64.46 ± 0.077 | 57.42 ± 0.17 | 49.7 ± 0.78 | 66.07 ± 0.095 | 58.63 ± 0.099 | 50.85 ± 0.34 | 67.22 ± 0.12 | 59.46 ± 0.12 | 51.9 ± 0.73 |
| GATCTCTCTATCATCGTTTATTGGGTAT | -377 ± 36 | -335 ± 11 | -301 ± 9 | -141 ± 12 | -122 ± 3.9 | -109 ± 3 | -18.9 ± 0.91 | -14.3 ± 0.18 | -11.5 ± 0.081 | 73.08 ± 0.33 | 62.69 ± 0.48 | 55.1 ± 0.83 | 73.89 ± 0.35 | 64.3 ± 0.58 | 57.06 ± 0.4 | 74.81 ± 0.38 | 65.57 ± 0.42 | 58.33 ± 0.34 | 75.52 ± 0.2 | 66.23 ± 0.5 | 59.33 ± 0.081 | 76.276 ± 0.075 | 66.83 ± 0.22 | 59.89 ± 0.23 | 77.239 ± 0.047 | 67.61 ± 0.095 | 60.59 ± 0.19 | 77.914 ± 0.069 | 68.11 ± 0.096 | 61.27 ± 0.12 |
| TTGAAAACCCATGTGC | -177 ± 5 | -180 ± 7.1 | -189 ± 8.7 | -69.1 ± 1.7 | -68.7 ± 2.4 | -69.7 ± 2.8 | -11.8 ± 0.082 | -10.62 ± 0.078 | -8.581 ± 0.024 | 60.23 ± 0.095 | – | 44.39 ± 0.2 | 62.8 ± 0.81 | 56.79 ± 0.24 | 47.54 ± 0.18 | 64.91 ± 0.47 | 59.35 ± 0.12 | 49.47 ± 0.39 | 66.29 ± 0.13 | 60.57 ± 0.15 | 50.5 ± 0.34 | 67.33 ± 0.16 | 61.45 ± 0.1 | 51.45 ± 0.23 | 68.7 ± 0.13 | 62.67 ± 0.086 | 52.45 ± 0.36 | 69.66 ± 0.17 | 63.58 ± 0.29 | 53.33 ± 0.26 |
| CCCAGGCCTCGGATTTA | -206 ± 6.1 | -191 ± 3.5 | -205 ± 6.3 | -80.8 ± 2.1 | -74.2 ± 1.2 | -77.5 ± 2.1 | -14.1 ± 0.15 | -12.37 ± 0.061 | -11.41 ± 0.078 | – | 61.72 ± 0.53 | 56.81 ± 0.12 | 71.02 ± 0.086 | 64.52 ± 0.19 | 59.77 ± 0.087 | 73.09 ± 0.13 | 66.7 ± 0.3 | 61.69 ± 0.093 | 74.25 ± 0.19 | 67.99 ± 0.22 | 62.78 ± 0.14 | 75.215 ± 0.05 | 68.759 ± 0.049 | 63.54 ± 0.15 | 76.343 ± 0.055 | 70.047 ± 0.069 | 64.73 ± 0.092 | 77.12 ± 0.096 | 71.04 ± 0.25 | 65.39 ± 0.35 |
| CGGTGCTTTTGGTAGC | -204 ± 15 | -200 ± 4.7 | -184 ± 7.3 | -78.9 ± 5 | -75.7 ± 1.6 | -69.1 ± 2.4 | -13 ± 0.28 | -11.01 ± 0.054 | -9.497 ± 0.038 | 64.53 ± 0.35 | 55.5 | 48.49 ± 0.47 | 66.24 ± 0.63 | 57.98 ± 0.26 | 51.59 ± 0.36 | 68.2 ± 0.57 | 60.12 ± 0.16 | 53.89 ± 0.15 | 69.42 ± 0.55 | 61.35 ± 0.16 | 55.11 ± 0.14 | 70.49 ± 0.27 | 62.11 ± 0.17 | 55.86 ± 0.081 | 71.77 ± 0.14 | 63.256 ± 0.027 | 56.93 ± 0.08 | 72.89 ± 0.21 | 64.025 ± 0.015 | 57.7 ± 0.2 |
| GTGGTACAAATGCGACC | -229 ± 5.5 | -214 ± 2.6 | -209 ± 8.9 | -88 ± 1.9 | -80.9 ± 0.88 | -77.3 ± 2.9 | -13.92 ± 0.12 | -11.87 ± 0.036 | -9.816 ± 0.052 | 66.7 | 58.59 ± 0.28 | 49.91 ± 0.4 | 68.46 ± 0.35 | 61.19 ± 0.13 | 52.86 ± 0.053 | 70.27 ± 0.1 | 63.12 ± 0.081 | 54.891 ± 0.046 | 71.34 ± 0.084 | 64.14 ± 0.075 | 55.93 ± 0.084 | 72.06 ± 0.12 | 65.04 ± 0.1 | 56.63 ± 0.12 | 73.205 ± 0.062 | 66.133 ± 0.0075 | 57.534 ± 0.054 | 74.14 ± 0.12 | 66.91 ± 0.08 | 58.25 ± 0.083 |
